Experimental data as given in the supplement of paper PMC10567573.

B1: TMEM106C (parent)
chain: FTGRDSITCLTCQGTGYIPTEQVN

Variants of: B1
Test: protein stability index of a GFP-peptide fusion (GPS, HEK-293T) (PSI 1-6); higher = more stable
Details: c terminus: a fixed tail appended
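Further: lentivirally expressed fusions sorted by FACS into six bins by GFP to DsRed ratio, PSI derived from sequencing read proportions per bin multiplied by bin number.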

| Variant | protein stability index |
| --- | --- |
| D5V | 4.33 |
| D5L | 2.66 |
| C12H | 1.98 |
| C12Q | 1.95 |
| C12P | 1.68 |
| C12I | 2.4 |
| C12D | 2.41 |
| C12Y | 2.06 |
| C12N | 2.18 |
| C12R | 1.85 |
| C12T | 1.63 |
| C12S | 2 |
| C12K | 2 |
| C12F | 2.34 |
| C12A | 2.17 |
| C12M | 2.09 |
| C12G | 2.04 |
| C12W | 2.51 |
| C12E | 2.18 |
| C12V | 1.83 |
| C12L | 1.79 |
| L10C | 1.99 |
| L10Y | 3.42 |
| L10R | 2.36 |

| Variant | protein stability index |
| --- | --- |
| L10S | 2.85 |
| L10W | 2.01 |
| L10H | 2.84 |
| L10P | 4.51 |
| L10D | 3.96 |
| L10E | 3.8 |
| L10K | 2.7 |
| L10F | 3 |
| L10G | 2.02 |
| L10A | 2.29 |
| L10V | 2.2 |
| L10N | 2.77 |
| L10I | 1.98 |
| L10M | 1.91 |
| L10Q | 3.17 |
| L10T | 2.65 |
| G14K | 1.66 |
| G14W | 1.69 |
| G14F | 2.99 |
| G14E | 2.28 |
| G14H | 1.88 |
| G14T | 2.33 |
| G14P | 1.29 |
| G14S | 1.58 |

| Variant | protein stability index |
| --- | --- |
| G14A | 1.5 |
| G14N | 1.74 |
| G14R | 2.24 |
| G14Q | 1.99 |
| G14M | 2.91 |
| G14C | 1.89 |
| G14I | 2.53 |
| G14L | 2.8 |
| G14V | 2.35 |
| G14D | 1.56 |
| S6Q | 2.05 |
| S6Y | 2.04 |
| S6T | 2.43 |
| S6L | 2.16 |
| S6M | 1.79 |
| S6P | 2.18 |
| S6F | 2.38 |
| S6D | 2.58 |
| S6K | 2.34 |
| S6G | 1.9 |
| S6R | 2.45 |
| S6A | 2.27 |
| S6E | 2.73 |
| S6N | 2.58 |

| Variant | protein stability index |
| --- | --- |
| S6C | 1.99 |
| S6H | 2.43 |
| S6I | 2.92 |
| S6V | 2.5 |
| R4Q | 2.46 |
| R4A | 1.86 |
| R4M | 2.33 |
| R4L | 1.81 |
| R4F | 2.52 |
| R4E | 2.59 |
| R4H | 1.98 |
| R4W | 2.62 |
| R4D | 3.14 |
| R4T | 1.87 |
| R4I | 2.48 |
| R4C | 2.32 |
| R4Y | 1.65 |
| R4G | 1.74 |
| R4V | 1.7 |
| R4K | 2.12 |
| R4P | 2.41 |
| R4S | 3.04 |
| R4N | 2.8 |
| G16Q | 1.6 |

| Variant | protein stability index |
| --- | --- |
| G16P | 3.09 |
| G16L | 2.13 |
| G16A | 1.92 |
| G16N | 1.49 |
| G16K | 1.56 |
| G16C | 1.83 |
| G16D | 1.56 |
| G16R | 2.21 |
| G16E | 1.7 |
| G16V | 1.85 |
| G16I | 2.94 |
| G16T | 2.04 |
| G16W | 2.98 |
| G16S | 2.05 |
| G16H | 2.01 |
| G16M | 2.8 |
| G16F | 2.71 |
| G16Y | 2.08 |
| Y17V | 2.55 |
| Y17R | 2.34 |
| Y17W | 3.54 |
| Y17D | 2.17 |
| Y17I | 1.92 |
| Y17F | 1.64 |

| Variant | protein stability index |
| --- | --- |
| Y17H | 2.61 |
| Y17N | 1.93 |
| Y17T | 2.16 |
| Y17E | 2.2 |
| Y17M | 1.77 |
| Y17A | 1.8 |
| Y17Q | 1.79 |
| Y17G | 1.47 |
| Y17P | 1.91 |
| Y17C | 2.13 |
| Y17S | 1.68 |
| Y17K | 1.94 |
| Y17L | 1.84 |
| T15R | 2.26 |
| T15W | 2.34 |
| T15M | 2.59 |
| T15P | 2.1 |
| T15S | 1.56 |
| T15V | 2.04 |
| T15A | 2.12 |
| T15C | 2.26 |
| T15I | 2.16 |
| T15F | 2.26 |
| T15L | 1.89 |

| Variant | protein stability index |
| --- | --- |
| T15Y | 2.52 |
| T15G | 1.43 |
| T15H | 2.09 |
| T15K | 2.12 |
| T15N | 1.62 |
| T15Q | 1.53 |
| T15E | 1.64 |
| T15D | 1.81 |
| I18G | 1.48 |
| I18F | 1.86 |
| I18C | 1.91 |
| I18H | 2.4 |
| I18D | 1.96 |
| I18K | 1.82 |
| I18A | 1.93 |
| I18P | 1.58 |
| I18E | 1.53 |
| I18M | 2.78 |
| I18Q | 2 |
| I18R | 2.57 |
| I18L | 2.55 |
| I18N | 1.61 |
| I18S | 2.09 |
